Substitutions are numbered along the chain they refer to.

For experiment [1], the target named is T1, mouse MerTK overexpressed on CHO cells (mouse, UniProt Q60805 19-994).
T1 construct: whole, on cells; also called CHO-muMerTK OE
T1 sequence (looked up): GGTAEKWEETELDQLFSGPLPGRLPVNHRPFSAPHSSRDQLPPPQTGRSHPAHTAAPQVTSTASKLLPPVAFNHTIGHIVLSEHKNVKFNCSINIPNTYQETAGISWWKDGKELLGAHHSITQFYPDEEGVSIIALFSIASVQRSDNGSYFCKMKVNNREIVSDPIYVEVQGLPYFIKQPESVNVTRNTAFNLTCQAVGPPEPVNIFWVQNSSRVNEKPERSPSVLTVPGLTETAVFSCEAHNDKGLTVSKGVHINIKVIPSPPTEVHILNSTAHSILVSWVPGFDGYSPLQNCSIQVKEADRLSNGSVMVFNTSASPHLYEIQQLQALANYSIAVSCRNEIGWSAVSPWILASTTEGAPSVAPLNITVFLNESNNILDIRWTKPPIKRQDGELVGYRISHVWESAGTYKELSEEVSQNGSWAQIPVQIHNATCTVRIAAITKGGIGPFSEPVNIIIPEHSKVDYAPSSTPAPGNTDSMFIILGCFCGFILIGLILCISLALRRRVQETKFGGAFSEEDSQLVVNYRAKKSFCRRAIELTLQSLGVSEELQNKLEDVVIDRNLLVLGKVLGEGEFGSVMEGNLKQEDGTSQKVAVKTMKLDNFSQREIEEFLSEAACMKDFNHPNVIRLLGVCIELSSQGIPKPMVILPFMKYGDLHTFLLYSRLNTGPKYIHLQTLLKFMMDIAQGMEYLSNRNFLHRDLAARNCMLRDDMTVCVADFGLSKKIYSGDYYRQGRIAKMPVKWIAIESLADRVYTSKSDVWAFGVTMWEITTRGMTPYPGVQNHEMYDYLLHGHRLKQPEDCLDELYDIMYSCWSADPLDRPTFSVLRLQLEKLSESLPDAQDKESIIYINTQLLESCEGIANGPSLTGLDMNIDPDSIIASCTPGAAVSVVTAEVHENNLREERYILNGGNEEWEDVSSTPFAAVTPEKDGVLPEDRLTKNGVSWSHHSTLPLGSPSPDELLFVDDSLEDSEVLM
Put plainly: FACS, CHO-muMerTK OE cells, 10 ug/ml. On the procedure: To determine whether recombinant anti-human MerTK antibodies of the present disclosure bind to human MerTK endogenously expressed on SK-MEL-5 cells and CHO cells overexpressing mouse MerTK (CHO-muMerTK OE cells), as compared to A375 and parental CHO cells as negative controls, the following experiments were performed. SK-MEL-5 cells, A375 cells, CHO-muMerTK OE cells, and CHO parental cells were plated at 100,000 cells/well. Anti-MerTK antibodies were added to the cells at 10 μg/ml. After 60 minutes on ice, cells were washed and then stained with PE-conjugated goat anti-human IgG antibody (Southern Biotech Cat #2040-09, Birmingham, AL) in the presence of Fc block solution on ice for 30 minutes, and then washed twice with cold FACS buffer (2% FBS in PBS). Mouse anti-human MerTK-PE conjugated (Biolegend, Clone 590H11G1E3) or anti-mouse MerTK-PE conjugated (ThermoFisher, Clone DS5MMER) antibodies were used as positive controls. Stained cells were acquired on a BD FACS Canto II cytometer and the mean fluorescence intensity (MFI) was calculated with FlowJo.
In general terms: A flow cytometer gives signals particle by particle.

Experiment [2] concerns the target T2, Recombinant human MerTK-human Fc Chimera protein (human, UniProt Q12866 26-499, limits assumed).
T2 construct: bought construct; also called MerTK-Fc (R&D systems, Cat #391-MR-100)
T2 sequence: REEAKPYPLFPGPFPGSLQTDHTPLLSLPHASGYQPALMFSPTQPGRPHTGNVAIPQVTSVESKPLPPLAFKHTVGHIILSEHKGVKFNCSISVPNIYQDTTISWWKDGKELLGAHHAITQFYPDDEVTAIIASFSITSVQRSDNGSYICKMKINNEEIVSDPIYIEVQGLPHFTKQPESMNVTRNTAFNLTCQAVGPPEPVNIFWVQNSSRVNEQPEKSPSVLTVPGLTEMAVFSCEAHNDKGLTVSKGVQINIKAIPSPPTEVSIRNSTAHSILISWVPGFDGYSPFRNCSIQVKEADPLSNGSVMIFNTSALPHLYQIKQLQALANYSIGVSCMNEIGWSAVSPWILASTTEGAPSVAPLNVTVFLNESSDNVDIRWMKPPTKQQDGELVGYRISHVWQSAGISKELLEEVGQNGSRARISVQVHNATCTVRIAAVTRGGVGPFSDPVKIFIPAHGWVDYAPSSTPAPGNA
Put plainly: blocking ELISA, Gas6-His on MerTK-Fc, Ab 66.6 nM, isotype=100%. On the procedure: Briefly, rabbit anti-human IgG antibody (Jackson ImmunoResearch, Cat #309-005-008) was coated at 2 μg/ml onto high-protein binding plates at 4° C. overnight. After washing with 0.05% Tween20 in PBS three times, 5% BSA in PBS was added for 1 hour. Recombinant human MerTK-human Fe Chimera protein (R&D systems, Cat #391-MR-100) was added at 2 μg/ml for 1 hour and plates were washed before the addition of 40 μl of anti-MerTK hybridoma supernatants and 40 μl of His tag-conjugated recombinant Gas6 (R&D systems, Cat #885-GSB-050) at 3 μg/ml or His tag-conjugated recombinant ProS (R&D systems, Cat #9489-PS-100) at 20 μg/ml. After a further incubation for 1 hour, plates were washed and incubated for 1 hour with HRP-conjugated anti-6×His tagged antibody (Abcam, Cambridge, MA, Cat #ab1187). Plates were then washed and an HRP substrate, TMB, was added to develop the plates. The reaction was stopped by adding 50 μl 2N H₂SO₄ and the OD was measured using a spectrophotometer (BioTek).
Anti-MerTK antibodies were titrated to a final concentration from 66.6 nM to 4 pM and tested against anti-human MerTK antibody M6 (disclosed in WO2016/106221) or isotype control antibody.
Background: An ELISA detects its analyte on a solid surface through an enzyme-linked reagent.

B1: MTK-212 (antibody, human IgG1, V domains shown)
VH: QVQLQQSGPELVKPGASVKISCKASGYAFSSSWVNWVKQRPGKGLEWIGRIYPGDGDSNYNGNFKGKATLTADKSSNTAYLQLSSLTSEDSAVYFCARKSHFIYYTLDYWGQGTPVTVSS
VL: DIVMTQSHKFKSTSVGDRVSIACKASQDVGTSVAWYQQKPGKSPKLLIYWASSRHTGVPDRFTGSGSGTDFTLTISNVQSEDLTDYFCQQYSTYPYTFGGGTKLEIK
Consider B1, for which the MFI in experiment [1] is 12800 MFI. Besides, the “Percent Gas6 ligand binding” value in experiment [2] is 122%.

B2: MTK-223 (antibody, human IgG1, V domains shown)
VH: DVQLQESGPGLVKPSQSLSLTCSVTGYSITSGYYWNWIRQFPGNKLEWMGYISYDGTNNYNPSLKNRISITRDTSENQFFLKLNSVTTEDTATYFCVRGAGYWGQGTTLTVSS
VL: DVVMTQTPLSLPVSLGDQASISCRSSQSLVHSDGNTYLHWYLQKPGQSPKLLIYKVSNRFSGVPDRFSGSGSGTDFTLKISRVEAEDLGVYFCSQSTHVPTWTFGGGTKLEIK
B2 had an MFI in experiment [1] of 234 MFI. Further, in experiment [2], the “Percent Gas6 ligand binding” value stood at 107%.

B3: MTK-231 (antibody, human IgG1, V domains shown)
VH: B2 VH with N58Y, N61H, E76K, K82T, Y94F, F95Y, V97T, A100G, T108S, L109V
VL: DVVMTQTPLSLPVSLGDQASISCRSSQSLVHSDGNTYLHWYLQKPGQSPKLLIYKVSNRFSGVPDRFSGSGSGTDFTLKISRLEAEDLGIYFCSQTTHIPLTFGSGTKLEIK
B3: the MFI in experiment [1] was determined as 594 MFI. Also, the “Percent Gas6 ligand binding” value in experiment [2] turned out to be 116%.

B4: MTK-211 (antibody, human IgG1, V domains shown)
VH: QVQLQQSGAELMKPGASVKLSCKATGYTFTGYWIEWVKQRPGHGLEWIGEILPGSGGSNYNEKFKGKATFTADTSSNTAYIQLSSLTTEDSAIYCCARGEPSYFSDAGFAYWGQGTLVTVSA
VL: QIVLTQSPAVMSASPGEKVTMTCSASSSITYMHWYQQKPGTSPKRWIYDTSKLASGVPARFSGSGSGTSYFLTISSMEAEDVATYYCHQRSTYPYTFGGGTKLEIM
As for B4, the MFI in experiment [1] was 5160 MFI. The “Percent Gas6 ligand binding” value in experiment [2] was 115%.

B5: MTK-210 (antibody, human IgG1, V domains shown)
VH: QVQLQQSGPELVKPGASVKISCKASDYEFSRSWMNWVKQRPGKGLEWIGRIYPGDGDTNYNGKFKGKATLTADKSSNTAYMQLNSLTSEDSAVYFCARKGGYYYSISNYFDYWGQGTTLTVSS
VL: QIVLTQSPAIMSASPGVKVTMTCSASSSVSYMHWYQQKPGSSPRLLIYDTSNLASGVPVRFSGSGSGTSYSLTISRMEAEDAATYYCQQWSSYPPYTFGGGTKLEIK
For B5, the MFI in experiment [1] is 252 MFI. Also, in experiment [2], the “Percent Gas6 ligand binding” value worked out at 114%.

B6: MTK-220 (antibody, V domains shown)
VH: EVQLVESGGGLVKPGGSLKLSCAASGFTFSDYGMHWVRQAPEKGLEWVAFISGGSGTIYYEDTVKGRFTISRDNAKNTLFLQMTSLRSEDTAMYYCTRGGNYFDYWGQGTTLTVSS
VL: NIMLTQSPSSLAVSAGEKVTMTCKSSQSVLYSSNQKNYLAWYQQKPGQSPKLLIYWASTRESGVPDRFTGSGSGTDFTLTISNVQAEDLAVYYCHQYFSSWTFGGGTKLEIK
B6: the MFI in experiment [1] came to 5800 MFI. Besides, in experiment [2], the “Percent Gas6 ligand binding” value came out at 97%.

B7: MTK-202 (antibody, human IgG1, V domains shown)
VH: EVQLVESGGGLVKPGGSLKLSCAASGFTFSDFGMHWVRQVPEKGLEWVAFISGGSNTIYYTDTVKGRFTISRDNAKNTLFLQMTSLRSEDTAMYYCVRNGNSFAYWGQGTLVTVSA
VL: B6 VL with L4M, T22N, V84I, V91I, S99F
In turn, B7 had an MFI in experiment [1] of 4410 MFI. Also, the “Percent Gas6 ligand binding” value in experiment [2] is 101%.

B8: MTK-204 (antibody, human IgG1, V domains shown)
VH: B6 VH with F50Y, G53S, S55T, G56S, T97A, N101L, Y102L
VL: B6 VL with L4M, T22S, Y55Q, G74E, S82R, N83S
As to B8, the MFI in experiment [1] amounted to 713 MFI. Besides, the “Percent Gas6 ligand binding” value in experiment [2] came out at 121%.

B9: MTK-219 (antibody, human IgG1, V domains shown)
VH: QVQLQQSGADLMKPGASVKLSCKATGNTFTGYWIEWVKQRPGHGLEWIGEILTGSGSTNYNERFKGKATFTADTSSNTAYMQLSSLTTEDSAIYYCAGSYFTNSWFPYWGQGSLVTVSA
VL: DIVLTQSPASLAVSLGQRATISCRASESVDSYGNSFMHWYQQKPGQPPKLLIYRAYTLESGIPARFSGSGSRTDFTLTINPVEADDVATYYCQQSNEDPRTFGGGTKLEIK
For B9, the MFI in experiment [1] was 11400 MFI. Besides, in experiment [2], the “Percent Gas6 ligand binding” value was 106%.

B10: MTK-222 (antibody, human IgG1, V domains shown)
VH: B9 VH with N27Y, T58S, R63K, T74S, Y80F, F101Y, T102S
VL: B9 VL with A9V, N34S, Y56S, T57S, A84T
For B10, in experiment [1], the MFI came out at 4760 MFI. Further, the “Percent Gas6 ligand binding” value in experiment [2] is 105%.

B11: MTK-213 (antibody, human IgG1, V domains shown)
VH: QVQLQQPGAELVKPGASVKMSCKASGYTFTSYWITWVKQRPGQGHEWIGEIYPGIGSTNYNEKFKSKATLTVDTSSRTAYMQLSSLTSEDSAVYFCARGAYTKYYFDYWGQGTTLTVSS
VL: DIVMTQSHKFMSTSVGDRVSITCKASQDVGDAVAWYQQKPGQTPKLLIYWASTRHTGVPDRFTGSGSGTDFTLTISNVQSEDLADYFCQQYSSYLMYTFGGGTKLEIK
Take B11: in experiment [1], the MFI stood at 12800 MFI. Also, the “Percent Gas6 ligand binding” value in experiment [2] stood at 102%.

B12: MTK-229 (antibody, human IgG1, V domains shown)
VH: QVQLQQSGPELVKPGASVKISCKASGYEFSRSWMNWVKQRPGKGLEWIGRIYPGDGDTNYKGKLKGQATLTADKSSSTAYMQLSSLTFEDSAVYFCARGGGYYYDSRYEGFVYWGQGTVVTVSA
VL: QIVLTQSPAIMSASPGEEVTMTCSASSSVSYMHWYQQKSGTSPKRWIYDTSKLASGVSGRFSGSGSGTSYSLTISSMEAEDAATYYCQQWSSNPPITFGAGTKLELK
In turn, B12 displayed an MFI in experiment [1] of 2000 MFI. In addition, in experiment [2], the “Percent Gas6 ligand binding” value was 98.9%.

The values are drawn from US20240294650A1 (Alector, published 2024).
